Test results taken from article PMC7810988, “Inositol pyrophosphates promote the interaction of SPX domains with the coiled-coil motif of PHR transcription factors to regulate plant phosphate homeostasis”.

B1: pAtSPX1 biotin (dsDNA)
DNA 1: CAGAGAAAAAAGGATATTCTAATTAGAAACCTTAAGAATATTCTTTTTAATCCC
DNA 2: GGGATTAAAAAGAATATTCTTAAGGTTTCTAATTAGAATATCCTTTTTTCTCTG
B2: IRD800-pAtSPX1 (dsDNA)
DNA 1: B1 DNA 1
DNA 2: B1 DNA 2

What was measured:
[1] = target: AtPHR1 MYB-CC Olig2 (Arabidopsis thaliana, UniProt Q94CL7 222-358, L317N;L327N;I341N); assay: GCI; 4 C, 300 mM NaCl; GCI at 4 C: AtPHR1 in 20 mM HEPES pH 7.5, 300 mM NaCl; OsPHR2 in 20 mM HEPES pH 7.9, 200 mM NaCl. EMSA: LI-COR Odyssey kit buffer without optional components, 50 nM oligo, 30 min at room temperature, 5% TBE gel in 0.5x TBE; details: protein: recombinant; tags: His6 N-terminal, TEV-cleaved; label: 5'-biotin on strand 1; blunt
AtPHR1 MYB-CC Olig2, sequence (Q94CL7 222-358 L317N/L327N/I341N): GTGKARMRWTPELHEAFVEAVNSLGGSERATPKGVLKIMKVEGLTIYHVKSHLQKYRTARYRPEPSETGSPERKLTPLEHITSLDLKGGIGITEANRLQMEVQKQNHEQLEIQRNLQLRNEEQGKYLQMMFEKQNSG

[2] = target: AtPHR1 MYB-CC Olig1 (Arabidopsis thaliana, UniProt Q94CL7 222-358, L319N;I333N;L337N); assay: EMSA; indistinguishable from wild type; GCI at 4 C: AtPHR1 in 20 mM HEPES pH 7.5, 300 mM NaCl; OsPHR2 in 20 mM HEPES pH 7.9, 200 mM NaCl. EMSA: LI-COR Odyssey kit buffer without optional components, 50 nM oligo, 30 min at room temperature, 5% TBE gel in 0.5x TBE; details: protein: recombinant; tags: His6 N-terminal, TEV-cleaved; label: 5'-IRD800 on both strands; blunt
AtPHR1 MYB-CC Olig1, sequence (Q94CL7 222-358 L319N/I333N/L337N): as the sequence (Q94CL7 222-358 L317N/L327N/I341N) above, with N96L, L98N, N106L, I112N, L116N, N120I counted along it

Binder	binding signal [1]	binding result [2]
B1	~20 fold reduced affinity vs wild type	–
B2	–	binds
